Data set [1] deals with bone morphogenetic protein 6 (BMP6) (UniProt P22004).
Data set [2] has as its target ERFE CLR* (center PGP of the collagen-like repeat mutated to SSS) (human) (UniProt Q4G0M1). Nature of the data set: AUC.
Data set [3] has the same target. Nature of the data set: non-reducing SDS-PAGE.
For data set [4], the target named is ERFE CLR*ΔC1Q (human) (UniProt Q4G0M1). Nature of the data set: AUC.
The target is the same in data set [5]. Nature of the data set: non-reducing SDS-PAGE.
The target in data set [6] is T1, bone morphogenetic protein 6 (BMP6) (UniProt P22004 375-513).
T1 sequence: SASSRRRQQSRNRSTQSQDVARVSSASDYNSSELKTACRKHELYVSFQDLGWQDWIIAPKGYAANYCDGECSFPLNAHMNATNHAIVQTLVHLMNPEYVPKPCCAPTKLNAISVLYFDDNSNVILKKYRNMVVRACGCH
Nature of the data set: cell-based or functional assay.

The data set “non-reducing SDS-PAGE” concerns the molecule itself. Nature of the data set: non-reducing SDS-PAGE.
Data set [7] deals with the molecule itself. Nature of the data set: AUC.
In data set [8] the target is bone morphogenetic protein 6 (BMP6) (UniProt P22004). This is another data set of the same source.
Data set [9] concerns the molecule itself. Nature of the data set: AUC. This is another data set of the same source.
The target in data set [10] is T2, growth differentiation factor 5 (GDF5) (UniProt P43026 382-501).
T2 sequence: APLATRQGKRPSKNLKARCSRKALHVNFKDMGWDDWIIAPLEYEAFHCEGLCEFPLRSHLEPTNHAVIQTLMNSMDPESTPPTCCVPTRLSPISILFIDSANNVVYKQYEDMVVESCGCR
Nature of the data set: cell-based or functional assay.

Data set [11] has as its target T3, bone morphogenetic protein 7 (BMP7) (UniProt P18075 293-431).
T3 sequence: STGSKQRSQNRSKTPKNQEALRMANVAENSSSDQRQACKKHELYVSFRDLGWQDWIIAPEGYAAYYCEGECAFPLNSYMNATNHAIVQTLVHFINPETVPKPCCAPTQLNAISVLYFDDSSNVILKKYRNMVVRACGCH
Nature of the data set: cell-based or functional assay.

Data set [12] has as its target bone morphogenetic protein 2 (BMP2) (UniProt P12643 283-396). Nature of the data set: cell-based or functional assay.
Data set [13] has as its target T1, bone morphogenetic protein 6 (BMP6). Nature of the data set: cell-based or functional assay. The source holds these as a separate data set.

This note sets out measurements from PMC10491252 (bioRxiv, 2023).

Where “and” joins values, the source holds several entries; their conditions need not be identical. Identical values can stand only once.

bone morphogenetic protein 2 (BMP2), sequence (P12643 283-396): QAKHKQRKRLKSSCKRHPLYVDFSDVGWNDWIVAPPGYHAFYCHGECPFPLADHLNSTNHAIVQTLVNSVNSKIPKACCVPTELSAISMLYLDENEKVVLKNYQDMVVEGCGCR

In the case of “ERFE CLR* (center PGP of the collagen-like repeat mutated to SSS) (from UniProt Q4G0M1 44-354) (natural protein)”, the IC50 of inhibition of 2.5nM BMP6, luciferase reporter in BRITER cells in data set [1] was 6.1 nM. The stoichiometry N – broadly, the number of molecules, sites or subunits per partner or assembly – was determined as 3 in data set [2] and 2 in data set [3].

For the molecule “ERFE CLR*ΔC1Q (from UniProt Q4G0M1 44-207) (domain or fragment)”, in [1], the IC50 of inhibition of 2.5nM BMP6, luciferase reporter in BRITER cells came to 27 nM. Besides, in the data set with ERFE CLR*ΔC1Q (human) [4], the percent of the protein as dimer was 38%, the percent of the protein as monomer was 61% and the stoichiometry N is 2. Also, the stoichiometry N with ERFE CLR*ΔC1Q (human) [5] was 2.

B1: ERFE ΔC1Q (stop codon at C208, entire C1Q domain removed) (domain or fragment)
chain: PPPGNELPRGPGESRAGPAARPPEPTAERAHSVDPRDAWMLFVRQSDKGVNGKKRSRGKAKKLKFGLPGPPGPPGPQGPPGPIIPPEALLKEFQLLLKGAVRQRERAEPEPCTCGPAGPVAASLAPVSATAGEDDDDVVGDVLALLAAPLAPGPRAPRVEAAFL
For the molecule B1, in [6], the “IC50 of inhibition of 2.5nM BMP6, luciferase reporter in BRITER cells” value (“IC50 of inhibition of 2.5nM BMP6” for short) worked out at 7.8 nM. Also, the “stoichiometry N” value came out at 2 in “non-reducing SDS-PAGE” and 3 in the data set “AUC [7]”.

B2: ERFE Cys*ΔC1Q (domain or fragment)
chain: PPPGNELPRGPGESRAGPAARPPEPTAERAHSVDPRDAWMLFVRQSDKGVNGKKRSRGKAKKLKFGLPGPPGPPGPQGPPGPIIPPEALLKEFQLLLKGAVRQRERAEPEPSTSGPAGPVAASLAPVSATAGEDDDDVVGDVLALLAAPLAPGPRAPRVEAAFL
With B2, the “IC50 of inhibition of 2.5nM BMP6” value in [6] worked out at 97 nM. For the same molecule, in “AUC [7]”, the “stoichiometry N” value was 3.

B3: ERFE D90A (natural protein)
chain: PPPGNELPRGPGESRAGPAARPPEPTAERAHSVDPRDAWMLFVRQSAKGVNGKKRSRGKAKKLKFGLPGPPGPPGPQGPPGPIIPPEALLKEFQLLLKGAVRQRERAEPEPCTCGPAGPVAASLAPVSATAGEDDDDVVGDVLALLAAPLAPGPRAPRVEAAFLCRLRRDALVERRALHELGVYYLPDAEGAFRRGPGLNLTSGQYRAPVAGFYALAATLHVALGEPPRRGPPRPRDHLRLLICIQSRCQRNASLEAIMGLESSSELFTISVNGVLYLQMGQWTSVFLDNASGCSLTVRSGSHFSAVLLGV
For the molecule B3, in [8], the IC50 of inhibition of BMP6, luciferase reporter in BRITER cells was 13 nM.

B4: erythroferrone (ERFE), wild type, N-terminally flag-tagged hERFE residues 44-354 (natural protein)
chain: PPPGNELPRGPGESRAGPAARPPEPTAERAHSVDPRDAWMLFVRQSDKGVNGKKRSRGKAKKLKFGLPGPPGPPGPQGPPGPIIPPEALLKEFQLLLKGAVRQRERAEPEPCTCGPAGPVAASLAPVSATAGEDDDDVVGDVLALLAAPLAPGPRAPRVEAAFLCRLRRDALVERRALHELGVYYLPDAEGAFRRGPGLNLTSGQYRAPVAGFYALAATLHVALGEPPRRGPPRPRDHLRLLICIQSRCQRNASLEAIMGLESSSELFTISVNGVLYLQMGQWTSVFLDNASGCSLTVRSGSHFSAVLLGV
For the molecule B4, the “stoichiometry N” value in the data set “AUC [9]” was 3 and 6. Besides, in data set [10], the “IC50 of ERFE inhibition of 2.5nM GDF5, BRE-luciferase reporter in BRITER cells” value was 130 nM. Besides, the “IC50 of ERFE inhibition of 2.5nM BMP7, BRE-luciferase reporter in BRITER cells” value in data set [11] worked out at 8.9 nM. The “IC50 of ERFE inhibition of 2.5nM BMP2, BRE-luciferase reporter in BRITER cells” value in [12] was 170 nM. In addition, in data set [13], the “IC50 of ERFE inhibition of 2.5nM BMP6, BRE-luciferase reporter in BRITER cells” value worked out at 5.2 nM.

B5: ERFE Cys* (Cys155, 157 and 208 mutated to serines) (natural protein)
chain: PPPGNELPRGPGESRAGPAARPPEPTAERAHSVDPRDAWMLFVRQSDKGVNGKKRSRGKAKKLKFGLPGPPGPPGPQGPPGPIIPPEALLKEFQLLLKGAVRQRERAEPEPSTSGPAGPVAASLAPVSATAGEDDDDVVGDVLALLAAPLAPGPRAPRVEAAFLSRLRRDALVERRALHELGVYYLPDAEGAFRRGPGLNLTSGQYRAPVAGFYALAATLHVALGEPPRRGPPRPRDHLRLLICIQSRCQRNASLEAIMGLESSSELFTISVNGVLYLQMGQWTSVFLDNASGCSLTVRSGSHFSAVLLGV
In the case of B5, in the data set “AUC [9]”, the “stoichiometry N” value amounted to 3. Besides, the “IC50 of inhibition of 2.5nM BMP6” value in data set [6] stood at 8.7 nM.

B6: ERFE N94A (natural protein)
chain: PPPGNELPRGPGESRAGPAARPPEPTAERAHSVDPRDAWMLFVRQSDKGVAGKKRSRGKAKKLKFGLPGPPGPPGPQGPPGPIIPPEALLKEFQLLLKGAVRQRERAEPEPCTCGPAGPVAASLAPVSATAGEDDDDVVGDVLALLAAPLAPGPRAPRVEAAFLCRLRRDALVERRALHELGVYYLPDAEGAFRRGPGLNLTSGQYRAPVAGFYALAATLHVALGEPPRRGPPRPRDHLRLLICIQSRCQRNASLEAIMGLESSSELFTISVNGVLYLQMGQWTSVFLDNASGCSLTVRSGSHFSAVLLGV
Turning to B6, the IC50 of inhibition of BMP6, luciferase reporter in BRITER cells in data set [8] came to 21 nM.
